{"source": "paper PMC10907219", "about": "“Leishmania profilin interacts with actin through an unusual structural mechanism to control cytoskeletal dynamics in parasites” (The Journal of Biological Chemistry, 2024)", "molecules": {"B1": {"name": "Leishmania major profilin (LmProfilin), wild type (natural protein)", "chain": "SWQAYVDDSLIGSGNMHSAAIIGAADGSYWAYGGSYVPQPEEVQHIQKCLSDFSFVQSSGVNIYGVKFFGLQCGTDGDCKYIFFKKGAAGGCIYTTKQAFIVAVYGNPGDTSSLQQDLEKNTAHAVTVNPADCNTTVKRIADYLIKLGY", "notes": "Leishmania major profilin, TriTrypDB LmjF.32.0520, UniProt Q4Q5N1; codon-optimised synthetic gene in pCoofy3; also called WT LmProfilin; LmProf-WT; source: E. coli BL21(DE3), purified (Ni-NTA, tag cleavage with 3C-PreScission protease, gel filtration); not shown: His6, N-terminal, cleaved; GST, N-terminal, cleaved"}, "B2": {"name": "decamer poly-L-proline peptide (peptide)", "peptide": "PPPPPPPPPP", "notes": "ten L-prolines written out from these words; also called poly-L-proline decamer; polyproline decamer; source: synthetic peptide, bought: CASLO ApS"}}, "key": {"[1]": {"target": "Leishmania major actin (LmActin), ATP-actin monomer (Leishmania major) (UniProt P45520)", "experiment": "ITC; LmActin (14-19 μM) in the sample cell, profilin (150 μM) in the syringe; 22 °C; G-buffer (2 mM Tris pH 7.5, 0.5 mM β-mercaptoethanol, 0.2 mM CaCl2, 0.2 mM ATP); single set of sites model; three independent experiments"}, "[2]": {"target": "Leishmania major actin (LmActin), ATP-actin monomer (UniProt P45520)", "experiment": "ITC", "conditions": "three independent ITC experiments for each protein; parent: 93.5"}, "[3]": {"target": "T1, Leishmania major actin (LmActin), ATP-actin monomer (Leishmania major, UniProt P45520 1-376, ATP-bound with Ca2+ (G-buffer), monomeric; C-terminal beta-thymosin-His10 tag removed by chymotrypsin; initiator Met absent as in the 8C47 entity (equals Q9U1E8 2-376))", "experiment": "ITC; LmActin (14-19 μM) in the sample cell, profilin (150 μM) in the syringe; 22 °C; G-buffer (2 mM Tris pH 7.5, 0.5 mM β-mercaptoethanol, 0.2 mM CaCl2, 0.2 mM ATP); single set of sites model; three independent experiments", "conditions": "both partners purified"}, "[4]": {"target": "T1, Leishmania major actin (LmActin), …", "experiment": "crystal structure; LmProfilin and LmActin mixed at ~1:1 molar ratio, 4.5 to 6.5 mg/ml, sitting drop; 0.1 M Bis-Tris pH 5.5, PEG4000 26% (w/v), 0.2 M NaCl; ATP-actin monomer with Ca2+", "conditions": "both partners purified"}, "[5]": {"target": "B1", "experiment": "other fluorescence titration; intrinsic tryptophan fluorescence of profilin (1 μM) with 3 to 3156 μM poly-L-proline decamer; room temperature; 20 mM Hepes pH 8.0, 50 mM NaCl; excitation 295 nm; OneSiteBind fit", "conditions": "both partners purified"}}}
{"molecule": "LmProfilin-Y6A (from UniProt Q4Q5N1 2-150) (natural protein)", "values": [{"measurement": "Kd", "setting": "[1]", "value": 90, "unit": "nM"}]}
{"molecule": "LmProfilin-K68A (from UniProt Q4Q5N1 2-150) (natural protein)", "values": [{"measurement": "Kd", "setting": "[1]", "value": 3000, "unit": "nM"}]}
{"molecule": "LmProfilin-ΔWH2 (entire WH2-like motif deleted) (from UniProt Q4Q5N1 2-150) (natural protein)", "values": [{"measurement": "fold reduction of affinity against WT profilin", "setting": "[1]", "value": 25, "unit": "fold"}]}
{"molecule": "Leishmania major profilin (LmProfilin), wild type (from UniProt Q4Q5N1) L115S; L119S", "values": [{"measurement": "Kd", "setting": "[2]", "value": 2740, "unit": "nM"}]}
{"molecule": "LmProfilin-WH2-SS (Leu115 and Leu119 replaced by serines) (from UniProt Q4Q5N1 2-150) (natural protein)", "values": [{"measurement": "fold reduction of affinity against WT profilin", "setting": "[1]", "value": 25, "unit": "fold"}]}
{"molecule": "B1", "values": [{"measurement": "Kd", "setting": "[3]", "value": "~90", "unit": "nM"}, {"measurement": "stoichiometry N", "setting": "[4]", "value": 1}]}
{"molecule": "B2", "values": [{"measurement": "Kd", "setting": "[5]", "value": 263000, "unit": "nM"}]}
